Laboratory results published in patent US20220387586A1 (Hoffmann-La Roche, published 2022).

Target: PD1 on PD1+LAG3+ human U2OS cells (UniProt Q15116 25-288)
Assay: cellular PD1/LAG3 dimerization assay on PD1+LAG3+ U2OS cells, chemoluminescence; the signal needs PD1 and LAG3 bound at once
Experimental: For this specific interaction, the cytosolic C-terminal ends of both receptors were individually fused to heterologous subunits of a reporter enzyme.
On the next day cell medium was discarded and replaced by fresh medium. Antibody or ligand dilutions were prepared and titrated amounts of indicated (bispecific) antibodies were added and incubated at 37° C. for 2 hours. Next, a substrate/buffer mix (e.g. PathHunterFlash detection reagent) was added and again incubated for 1h. For measuring chemoluminescence induced upon simultaneous binding and dimerization a Tecan infinite reader was used.

PD1 on PD1+LAG3+ human U2OS cells, sequence (Q15116 25-288): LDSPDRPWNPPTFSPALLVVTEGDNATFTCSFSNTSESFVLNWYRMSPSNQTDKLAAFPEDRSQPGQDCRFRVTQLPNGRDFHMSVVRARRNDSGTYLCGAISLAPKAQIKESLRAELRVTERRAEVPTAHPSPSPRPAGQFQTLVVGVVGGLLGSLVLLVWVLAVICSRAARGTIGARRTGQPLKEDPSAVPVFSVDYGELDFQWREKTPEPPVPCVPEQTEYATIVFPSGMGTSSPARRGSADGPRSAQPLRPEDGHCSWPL

EC50 (read off the curve): ~0.4 µg/mL
B1: 0918 (bispecific antibody, human IgG1, kappa, L234A L235A)
heavy chain 1 (aLAG3 25F7 heavy chain, hole, with PD1 0376 VH at the C-terminus): QVQLQQWGAGLLKPSETLSLTCAVYGGSFSDYYWNWIRQPPGKGLEWIGEINHNGNTNSNPSLKSRVTLSLDTSKNQFSLKLRSVTAADTAVYYCAFGYSDYEYNWFDPWGQGTLVTVSSASTKGPSVFPLAPSSKSTSGGTAALGCLVKDYFPEPVTVSWNSGALTSGVHTFPAVLQSSGLYSLSSVVTVPSSSLGTQTYICNVNHKPSNTKVDKKVEPKSCDKTHTCPPCPAPEAAGGPSVFLFPPKPKDTLMISRTPEVTCVVVDVSHEDPEVKFNWYVDGVEVHNAKTKPREEQYNSTYRVVSVLTVLHQDWLNGKEYKCKVSNKALGAPIEKTISKAKGQPREPQVCTLPPSRDELTKNQVSLSCAVKGFYPSDIAVEWESNGQPENNYKTTPPVLDSDGSFFLVSKLTVDKSRWQQGNVFSCSVMHEALHNHYTQKSLSLSPGGGGGSGGGGSGGGGSGGGGSEVQLLESGGGLVQPGGSLRLSCAASGFSFSSYTMSWVRQAPGKGLEWVATISGGGRDIYYPDSVKGRFTISRDNSKNTLYLQMNSLRAEDTAVYYCVLLTGRVYFALDSWGQGTLVTVSS
heavy chain 2 (aLAG3 25F7 heavy chain, knob, with PD1 0376 VL at the C-terminus): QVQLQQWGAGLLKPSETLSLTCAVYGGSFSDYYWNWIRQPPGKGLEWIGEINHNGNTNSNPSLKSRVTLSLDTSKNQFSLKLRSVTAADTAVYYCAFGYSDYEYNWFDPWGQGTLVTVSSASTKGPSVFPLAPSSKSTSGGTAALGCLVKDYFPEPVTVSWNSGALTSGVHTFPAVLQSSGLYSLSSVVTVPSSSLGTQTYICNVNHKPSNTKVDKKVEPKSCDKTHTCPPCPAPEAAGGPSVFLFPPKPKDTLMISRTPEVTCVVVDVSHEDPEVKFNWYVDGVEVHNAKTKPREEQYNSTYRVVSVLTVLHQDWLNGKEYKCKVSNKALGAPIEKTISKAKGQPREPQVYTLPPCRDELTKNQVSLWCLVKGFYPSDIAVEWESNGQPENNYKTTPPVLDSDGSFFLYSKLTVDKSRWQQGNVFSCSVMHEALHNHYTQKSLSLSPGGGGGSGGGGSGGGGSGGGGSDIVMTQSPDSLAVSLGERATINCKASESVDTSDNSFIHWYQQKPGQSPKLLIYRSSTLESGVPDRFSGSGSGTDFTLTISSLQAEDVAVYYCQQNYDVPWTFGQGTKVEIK
light chain (aLAG3 25F7): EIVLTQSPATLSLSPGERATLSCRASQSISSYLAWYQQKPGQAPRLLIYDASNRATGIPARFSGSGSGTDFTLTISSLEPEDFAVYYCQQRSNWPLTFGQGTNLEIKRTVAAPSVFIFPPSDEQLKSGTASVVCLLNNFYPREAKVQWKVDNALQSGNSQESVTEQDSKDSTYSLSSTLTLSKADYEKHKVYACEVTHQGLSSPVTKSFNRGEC
notes: also called PD1/LAG3 0918
